Laboratory results taken from patent US12517124B2, “Chimeric receptor for use in whole-cell sensors for detecting analytes of interest” (INSERM (Institut National de la Sante et de la Recherche …, priority 2017, dated 2026).

B1: CadC-wtTM-GCN4: CadC DNA binding domain, wild type CadC transmembrane region, C-terminal autodimerization leucine zipper GCN4 (protein)
chain: MQQPVVRVGEWLVTPSINQISRNGRQLTLEPRLIDLLVFFAQHSGEVLSRDELIDNVWKRSIVTNHVVTQSISELRKSLKDNDEDSPVYIATVPKRGYKLMVPVIWYSEEEGEEIMLSSPPPIPEAVPATDSPSHSLNIQNTATPPEQSPVKSKRFTTFWVWFFFLLSLGICVALVAFSSLDTRLPMLEDKVEELLSKNYHLENEVARL
B2: full-length LexA: full-length LexA transcriptional repressor, positive control (protein, UniProt P0A7C2 1-202, looked up)
chain: MKALTARQQEVFDLIRDHISQTGMPPTRAEIAQRLGFRSPNAAEEHLKALARKGVIEIVSGASRGIRLLQEEEEGLPLVGRVAAGEPLLAQQHIEGHYQVDPSLFKPNADFLLRVSGMSMKDIGIMDGDLLAVHKTQDVRNGQVVVARIDDEVTVKRLKKQGNKVELLPENSEFKPIVVDLRQQSFTIEGLAVGVIRNGDWL
modifications: full-length
notes: full-length LexA transcriptional repressor, positive control

Legend:
[1] = tested on: reporter GFP through pCadBA promoter; assay: Activation of CadC transcriptional factor by periplasmic GCN4 domain oligomerization, GFP reporter, flow cytometry; assay type: cell-based, E. coli; settings: compared to construct without GCN4; 1 mM IPTG
Source text: CadC and LexA transcriptional factor DNA binding domain, Leucine zipper GCN4, VHHcafe and VHHRNase were synthesized by INTEGRATED DNA TECHNOLOGIES® (IDT®). Different DNA components such as GFP reporter, CadBA promoter, pLexA promoter and CadC variants were constructed into BIOBRICK® standard vector pSB4K5 by Gibson assembly methods. The resulting constructs were transformed into E. coli strain NEB®10beta (NEW ENGLAND BIOLABS®, NEB®) and determined their performance. In all constructs, the expression level of CadC variants are under the control of pLac-1 promoter, which can be induced by IPTG. The CadC variants control the expression of reporter GFP through pCadBA promoter.
Pick a single colony of CadC operating unit variant into 3 mL of LB/kanamycin medium and incubate in 37° C. overnight with vigorous shaking. The overnight culture is further diluted 100 fold into 3 mL of LB/kanamycin medium and incubated in 37° C. for 4 hours to reach to exponential phase (O.D=0.4˜0.6). […] The resulting cell culture was further analyzed with ATTUNE® NxT flow cytometer. […]

[2] = tested on: Green Fluorescent Protein (GFP) driven by the LexA promoter; assay type: cell-based, E. coli; settings: different IPTG concentrations
Source text: In order to prevent interference from endogenous E. coli LexA, we used the mutant LexA-408, and its corresponding promoter which is not recognized by the wild type LexA. We fused LexA DBD to a monomeric LBD that undergoes ligand-induced homodimerization. Thus, in the presence of ligand, LexA DBD should be able to bind DNA and repress target gene expression.
We used a single-domain VHH camelid antibody that can be dimerized upon binding to its ligand caffeine (termed VHH-Caffeine from herein). As a negative control we chose a VHH targeting RNase A (termed VHH-Control from herein).
Detection of caffeine using a LexA-VHH fusion. We built two chimeric proteins, expressed in E. coli cytoplasm, composed of an N-terminal LexA DBD and a C-terminal VHH, and placed their expression under the control of the pLacO1 promoter induced by isopropyl β-D-1-thiogalactopyranoside (IPTG). As a reporter, we used the Green Fluorescent Protein (GFP) driven by the LexA promoter. As positive and negative controls, we expressed full-length LexA and LexA DBD. […] We then characterized the behavior of cells expressing LexAVHH-Caffeine and LexA-VHH-Control in response to increasing concentrations of IPTG and caffeine (data not shown). […] We then monitored the response of the LexA-VHH fusions to increasing concentrations of caffeine at different IPTG concentrations. […] We calculated the fold repression of LexA-VHH-Caffeine.

| Molecule | fold activation of downstream reporter gene (GFP) expression [1] [fold] | response to increasing concentrations of caffeine [2] |
| --- | --- | --- |
| B1 | 50 |  |
| B2 |  | not affected by caffeine |
